Columns and labels:
soluble type-I collagen [1] = molecular target: soluble type-I collagen (UniProt P02454); experiment: ELISA; collagen-binding ELISA; soluble type-I collagen immobilised on plates, salivary gland homogenates of 20 TG mosquitoes (hold mDsRed-8H7scFv) applied 1 h at room temperature; quantified against Trx-AAPPex1-4
soluble type-I collagen [2] = molecular target: soluble type-I collagen (UniProt P02454); experiment: ELISA; collagen-binding ELISA; soluble type-I collagen immobilised on plates, salivary gland homogenates of 20 WT mosquitoes applied 1 h at room temperature; quantified against Trx-AAPPex1-4
soluble type-I collagen [3] = molecular target: soluble type-I collagen (UniProt P02454); experiment: ELISA; collagen-binding ELISA; soluble type-I collagen immobilised on plates (7.5 ug/ml, 100 ul/well), saliva of 20 WT mosquitoes applied 1 h at room temperature; quantified against Trx-AAPPex1-4
soluble type-I collagen [4] = molecular target: soluble type-I collagen (UniProt P02454); experiment: ELISA; collagen-binding ELISA; soluble type-I collagen immobilised on plates, saliva of 20 TG mosquitoes (holds mDsRed-8H7scFv) applied 1 h at room temperature; quantified against Trx-AAPPex1-4

Chain of soluble type-I collagen (P02454 152-1207, chain 1 of 2): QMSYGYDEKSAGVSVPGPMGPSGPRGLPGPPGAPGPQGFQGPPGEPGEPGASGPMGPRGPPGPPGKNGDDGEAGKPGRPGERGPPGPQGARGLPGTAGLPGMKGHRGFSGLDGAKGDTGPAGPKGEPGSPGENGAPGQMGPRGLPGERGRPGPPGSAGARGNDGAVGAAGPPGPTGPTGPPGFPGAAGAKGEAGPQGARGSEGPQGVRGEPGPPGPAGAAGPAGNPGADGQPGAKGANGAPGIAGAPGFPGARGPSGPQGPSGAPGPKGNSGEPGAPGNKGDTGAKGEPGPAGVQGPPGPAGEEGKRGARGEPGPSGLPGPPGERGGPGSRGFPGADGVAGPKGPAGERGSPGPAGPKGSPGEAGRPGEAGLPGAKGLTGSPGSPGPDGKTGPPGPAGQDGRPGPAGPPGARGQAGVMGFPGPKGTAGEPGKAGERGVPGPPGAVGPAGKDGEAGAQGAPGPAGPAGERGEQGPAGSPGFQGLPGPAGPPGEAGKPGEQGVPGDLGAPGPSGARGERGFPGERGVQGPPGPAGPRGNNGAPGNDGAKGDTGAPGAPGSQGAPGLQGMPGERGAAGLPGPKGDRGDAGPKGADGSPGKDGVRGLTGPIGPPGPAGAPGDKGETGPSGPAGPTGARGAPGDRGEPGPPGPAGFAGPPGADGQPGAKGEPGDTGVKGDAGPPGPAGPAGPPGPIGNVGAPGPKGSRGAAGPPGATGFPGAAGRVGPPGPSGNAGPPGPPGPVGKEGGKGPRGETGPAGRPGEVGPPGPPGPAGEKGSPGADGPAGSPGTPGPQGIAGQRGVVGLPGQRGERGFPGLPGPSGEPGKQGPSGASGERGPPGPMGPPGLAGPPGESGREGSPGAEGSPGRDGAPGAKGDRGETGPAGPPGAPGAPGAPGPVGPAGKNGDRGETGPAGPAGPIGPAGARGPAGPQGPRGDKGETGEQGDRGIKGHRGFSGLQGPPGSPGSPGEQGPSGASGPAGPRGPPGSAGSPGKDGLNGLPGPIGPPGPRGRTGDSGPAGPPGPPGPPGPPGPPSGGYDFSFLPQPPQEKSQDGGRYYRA
Chain of soluble type-I collagen (P02466 86-1125, chain 2 of 2, further chain): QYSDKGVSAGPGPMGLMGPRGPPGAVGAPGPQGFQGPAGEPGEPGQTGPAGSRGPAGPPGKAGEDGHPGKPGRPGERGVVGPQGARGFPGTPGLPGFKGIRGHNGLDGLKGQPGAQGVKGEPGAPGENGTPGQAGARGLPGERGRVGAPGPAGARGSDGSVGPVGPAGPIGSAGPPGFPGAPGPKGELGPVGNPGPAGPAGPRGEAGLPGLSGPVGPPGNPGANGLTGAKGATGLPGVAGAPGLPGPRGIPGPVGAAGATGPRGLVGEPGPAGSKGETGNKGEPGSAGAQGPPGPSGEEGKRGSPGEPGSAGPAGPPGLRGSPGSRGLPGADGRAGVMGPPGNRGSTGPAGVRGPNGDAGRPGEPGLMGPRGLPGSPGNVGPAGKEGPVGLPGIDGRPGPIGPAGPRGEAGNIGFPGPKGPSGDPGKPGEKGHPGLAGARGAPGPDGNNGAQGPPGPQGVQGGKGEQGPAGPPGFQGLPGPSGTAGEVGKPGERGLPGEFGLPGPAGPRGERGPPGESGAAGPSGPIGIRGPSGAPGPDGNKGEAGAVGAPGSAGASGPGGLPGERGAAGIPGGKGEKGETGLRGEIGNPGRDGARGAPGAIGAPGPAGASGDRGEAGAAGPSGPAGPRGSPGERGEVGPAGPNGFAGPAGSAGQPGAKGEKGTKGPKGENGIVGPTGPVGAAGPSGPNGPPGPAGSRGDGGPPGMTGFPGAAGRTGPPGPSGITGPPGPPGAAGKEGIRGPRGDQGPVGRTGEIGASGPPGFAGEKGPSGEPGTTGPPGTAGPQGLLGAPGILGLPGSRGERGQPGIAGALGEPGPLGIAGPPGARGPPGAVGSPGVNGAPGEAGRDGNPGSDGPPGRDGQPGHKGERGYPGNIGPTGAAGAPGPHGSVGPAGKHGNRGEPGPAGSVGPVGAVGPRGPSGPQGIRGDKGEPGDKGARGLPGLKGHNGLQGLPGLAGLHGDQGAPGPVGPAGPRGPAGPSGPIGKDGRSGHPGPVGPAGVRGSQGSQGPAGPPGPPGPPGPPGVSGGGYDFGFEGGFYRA

For “Anopheline antiplatelet protein (AAPP) (from UniProt Q7YT37 20-269) (natural protein)”, the amount of AAPP capable of binding to collagen, with mDsRed-8H7scFv present (salivary glands of 20 TG-03 mosquitoes) (soluble type-I collagen [1]) was 11.4 ng, the amount of AAPP capable of binding to collagen, with mDsRed-8H7scFv present (salivary glands of 20 TG-30 mosquitoes) (soluble type-I collagen [1]) was 9.95 ng and the amount of AAPP capable of binding to collagen, with mDsRed-8H7scFv present (salivary glands of 20 TG-37 mosquitoes) (soluble type-I collagen [1]) was 10.5 ng. For the same substance, the amount of AAPP capable of binding to collagen (salivary glands of 20 WT mosquitoes) (soluble type-I collagen [2]) was 233 ng, the amount of AAPP capable of binding to collagen (saliva of 20 WT mosquitoes) (soluble type-I collagen [3]) was 28.4 ng and the amount of AAPP capable of binding to collagen, with mDsRed-8H7scFv present (saliva of 20 mosquitoes of each TG line) (soluble type-I collagen [4]) was < 0.069 ng.
